In paper PMC3859071, “Development of a Multiplex Sandwich Aptamer Microarray for the Detection of VEGF165 and Thrombin”:

What was measured:
[1] = target: T1, VEGF165 (human, UniProt P15692-4 27-191); experiment: sandwich aptamer microarray; detected with VEa5-Cy5; EMSA: TBSE (0.05 mM EDTA, 10 mM Tris-HCl, 100 mM NaCl, pH 7; Vap7 folded with +100 mM KCl), 25 C, 30-60 min, 0.1 uM aptamer; 12% gel in 50 mM glycine pH 9.5 with or without 10 mM KCl. Microarray: TBSE, 25 C, 30 min, PBS washes; settings: protein: commercial; chain copies: 2
T1 sequence (P15692 other isoform, or with tags, fused parts or gaps): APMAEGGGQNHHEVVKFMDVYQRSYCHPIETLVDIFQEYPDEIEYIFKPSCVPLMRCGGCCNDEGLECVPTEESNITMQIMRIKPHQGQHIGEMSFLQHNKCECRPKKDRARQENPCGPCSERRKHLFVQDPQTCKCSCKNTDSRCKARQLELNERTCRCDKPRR

[2] = target: T1, VEGF165; experiment: EMSA supershift; 10 uM VEGF165; ternary complex; EMSA: TBSE (0.05 mM EDTA, 10 mM Tris-HCl, 100 mM NaCl, pH 7; Vap7 folded with +100 mM KCl), 25 C, 30-60 min, 0.1 uM aptamer; 12% gel in 50 mM glycine pH 9.5 with or without 10 mM KCl. Microarray: TBSE, 25 C, 30 min, PBS washes; settings: protein: commercial; chain copies: 2; label: 5'-FAM on strand 2; two separate aptamers, not a duplex
[3] = target: T1, VEGF165; experiment: EMSA; 100 mM KCl; EMSA: TBSE (0.05 mM EDTA, 10 mM Tris-HCl, 100 mM NaCl, pH 7; Vap7 folded with +100 mM KCl), 25 C, 30-60 min, 0.1 uM aptamer; 12% gel in 50 mM glycine pH 9.5 with or without 10 mM KCl. Microarray: TBSE, 25 C, 30 min, PBS washes; settings: protein: commercial; chain copies: 2; G4
[4] = target: T1, VEGF165; experiment: EMSA; 5 uM VEGF165; EMSA: TBSE (0.05 mM EDTA, 10 mM Tris-HCl, 100 mM NaCl, pH 7; Vap7 folded with +100 mM KCl), 25 C, 30-60 min, 0.1 uM aptamer; 12% gel in 50 mM glycine pH 9.5 with or without 10 mM KCl. Microarray: TBSE, 25 C, 30 min, PBS washes; settings: protein: commercial; chain copies: 2; label: 5'-FAM; three stem-loops (predicted)
[5] = target: T1, VEGF165; experiment: EMSA; 5 uM VEGF165; two shifted bands; EMSA: TBSE (0.05 mM EDTA, 10 mM Tris-HCl, 100 mM NaCl, pH 7; Vap7 folded with +100 mM KCl), 25 C, 30-60 min, 0.1 uM aptamer; 12% gel in 50 mM glycine pH 9.5 with or without 10 mM KCl. Microarray: TBSE, 25 C, 30 min, PBS washes; settings: protein: commercial; chain copies: 2; label: 5'-FAM; G4
[6] = target: T1, VEGF165; experiment: EMSA; EMSA: TBSE (0.05 mM EDTA, 10 mM Tris-HCl, 100 mM NaCl, pH 7; Vap7 folded with +100 mM KCl), 25 C, 30-60 min, 0.1 uM aptamer; 12% gel in 50 mM glycine pH 9.5 with or without 10 mM KCl. Microarray: TBSE, 25 C, 30 min, PBS washes; settings: protein: commercial; chain copies: 2; three stem-loops (predicted)

Question: Does TCACGCTTATTTAAGAAGCTGTTTGGTGGAGG (ssDNA, 5'-amino) [Random DNA-NH2] bind [1]?
Answer: Result: no binding

B1: VEa5-NH2 + Vap7-FAM (mixed)
DNA 1: ATACCAGTCTATTCAATTGGGCCCGTCCGTATGGTGGGTGTGCTGGCCAGATAGTATGTGCAATCA
DNA 2: ATACCAGTCTATTCAATTGCACTCTGTGGGGGTGGACGGGCCGGGTAGA
modifications: 5'-amino on strand 1
Question: Does B1 bind [2]?
Answer: Result: binds

Question: Does ATACCAGTCTATTCAATTGCACTCTGTGGGGGTGGACGGGCCGGGTAGA (structured_DNA) [Vap7] bind [3]?
Answer: Result: binds

B2: VEa5-FAM (structured_DNA)
DNA: ATACCAGTCTATTCAATTGGGCCCGTCCGTATGGTGGGTGTGCTGGCCAGATAGTATGTGCAATCA
Question: Does B2 bind [4]?
Answer: Result: binds

B3: Vap7-NH2 + VEa5-FAM (mixed)
DNA 1: ATACCAGTCTATTCAATTGCACTCTGTGGGGGTGGACGGGCCGGGTAGA
DNA 2: ATACCAGTCTATTCAATTGGGCCCGTCCGTATGGTGGGTGTGCTGGCCAGATAGTATGTGCAATCA
modifications: 5'-amino on strand 1
Question: Does B3 bind [2]?
Answer: Result: binds

Question: Does ATACCAGTCTATTCAATTGCACTCTGTGGGGGTGGACGGGCCGGGTAGA (structured_DNA) [Vap7-FAM] bind [5]?
Answer: Result: binds

B4: VEa5 (structured_DNA)
DNA: ATACCAGTCTATTCAATTGGGCCCGTCCGTATGGTGGGTGTGCTGGCCAGATAGTATGTGCAATCA
Question: Does B4 bind [6]?
Answer: Result: binds
